# Reference: paper PMC8164048
# What was measured:
# [1] = molecular target: Full-length human low-density lipoprotein receptor-related protein 1 (LRP1) (human) (UniProt Q07954); assay: SPR; full-length LRP1 coupled to the chip (Biacore 3000); single-cycle kinetic titration of tau forms (3.8, 11.5, 34.4, 103.3, 310 nM, 3.5-min injections), with Ca2+; Req from a pseudo first-order fit plotted against concentration, KD by nonlinear regression
# [2] = molecular target: Full-length human low-density lipoprotein receptor-related protein 1 (LRP1) (human) (UniProt Q07954); assay: SPR; LRP1-coupled chip; lipid-free apoE isoforms injected at 52, 104, 208, 417, 834, 1668 nM; association and dissociation fit globally to a bivalent binding model; KD = 1/KA, KA = (ka1/kd1)*(1+(ka2/kd2))
# [3] = molecular target: Full-length human low-density lipoprotein receptor-related protein 1 (LRP1) (human) (UniProt Q07954); assay: SPR; LRP1-coupled chip; lipid-free apoE isoforms; equilibrium analysis, Req from a pseudo first-order fit of the association data
# UniProt Q07954, sequence (Q07954 20-4544): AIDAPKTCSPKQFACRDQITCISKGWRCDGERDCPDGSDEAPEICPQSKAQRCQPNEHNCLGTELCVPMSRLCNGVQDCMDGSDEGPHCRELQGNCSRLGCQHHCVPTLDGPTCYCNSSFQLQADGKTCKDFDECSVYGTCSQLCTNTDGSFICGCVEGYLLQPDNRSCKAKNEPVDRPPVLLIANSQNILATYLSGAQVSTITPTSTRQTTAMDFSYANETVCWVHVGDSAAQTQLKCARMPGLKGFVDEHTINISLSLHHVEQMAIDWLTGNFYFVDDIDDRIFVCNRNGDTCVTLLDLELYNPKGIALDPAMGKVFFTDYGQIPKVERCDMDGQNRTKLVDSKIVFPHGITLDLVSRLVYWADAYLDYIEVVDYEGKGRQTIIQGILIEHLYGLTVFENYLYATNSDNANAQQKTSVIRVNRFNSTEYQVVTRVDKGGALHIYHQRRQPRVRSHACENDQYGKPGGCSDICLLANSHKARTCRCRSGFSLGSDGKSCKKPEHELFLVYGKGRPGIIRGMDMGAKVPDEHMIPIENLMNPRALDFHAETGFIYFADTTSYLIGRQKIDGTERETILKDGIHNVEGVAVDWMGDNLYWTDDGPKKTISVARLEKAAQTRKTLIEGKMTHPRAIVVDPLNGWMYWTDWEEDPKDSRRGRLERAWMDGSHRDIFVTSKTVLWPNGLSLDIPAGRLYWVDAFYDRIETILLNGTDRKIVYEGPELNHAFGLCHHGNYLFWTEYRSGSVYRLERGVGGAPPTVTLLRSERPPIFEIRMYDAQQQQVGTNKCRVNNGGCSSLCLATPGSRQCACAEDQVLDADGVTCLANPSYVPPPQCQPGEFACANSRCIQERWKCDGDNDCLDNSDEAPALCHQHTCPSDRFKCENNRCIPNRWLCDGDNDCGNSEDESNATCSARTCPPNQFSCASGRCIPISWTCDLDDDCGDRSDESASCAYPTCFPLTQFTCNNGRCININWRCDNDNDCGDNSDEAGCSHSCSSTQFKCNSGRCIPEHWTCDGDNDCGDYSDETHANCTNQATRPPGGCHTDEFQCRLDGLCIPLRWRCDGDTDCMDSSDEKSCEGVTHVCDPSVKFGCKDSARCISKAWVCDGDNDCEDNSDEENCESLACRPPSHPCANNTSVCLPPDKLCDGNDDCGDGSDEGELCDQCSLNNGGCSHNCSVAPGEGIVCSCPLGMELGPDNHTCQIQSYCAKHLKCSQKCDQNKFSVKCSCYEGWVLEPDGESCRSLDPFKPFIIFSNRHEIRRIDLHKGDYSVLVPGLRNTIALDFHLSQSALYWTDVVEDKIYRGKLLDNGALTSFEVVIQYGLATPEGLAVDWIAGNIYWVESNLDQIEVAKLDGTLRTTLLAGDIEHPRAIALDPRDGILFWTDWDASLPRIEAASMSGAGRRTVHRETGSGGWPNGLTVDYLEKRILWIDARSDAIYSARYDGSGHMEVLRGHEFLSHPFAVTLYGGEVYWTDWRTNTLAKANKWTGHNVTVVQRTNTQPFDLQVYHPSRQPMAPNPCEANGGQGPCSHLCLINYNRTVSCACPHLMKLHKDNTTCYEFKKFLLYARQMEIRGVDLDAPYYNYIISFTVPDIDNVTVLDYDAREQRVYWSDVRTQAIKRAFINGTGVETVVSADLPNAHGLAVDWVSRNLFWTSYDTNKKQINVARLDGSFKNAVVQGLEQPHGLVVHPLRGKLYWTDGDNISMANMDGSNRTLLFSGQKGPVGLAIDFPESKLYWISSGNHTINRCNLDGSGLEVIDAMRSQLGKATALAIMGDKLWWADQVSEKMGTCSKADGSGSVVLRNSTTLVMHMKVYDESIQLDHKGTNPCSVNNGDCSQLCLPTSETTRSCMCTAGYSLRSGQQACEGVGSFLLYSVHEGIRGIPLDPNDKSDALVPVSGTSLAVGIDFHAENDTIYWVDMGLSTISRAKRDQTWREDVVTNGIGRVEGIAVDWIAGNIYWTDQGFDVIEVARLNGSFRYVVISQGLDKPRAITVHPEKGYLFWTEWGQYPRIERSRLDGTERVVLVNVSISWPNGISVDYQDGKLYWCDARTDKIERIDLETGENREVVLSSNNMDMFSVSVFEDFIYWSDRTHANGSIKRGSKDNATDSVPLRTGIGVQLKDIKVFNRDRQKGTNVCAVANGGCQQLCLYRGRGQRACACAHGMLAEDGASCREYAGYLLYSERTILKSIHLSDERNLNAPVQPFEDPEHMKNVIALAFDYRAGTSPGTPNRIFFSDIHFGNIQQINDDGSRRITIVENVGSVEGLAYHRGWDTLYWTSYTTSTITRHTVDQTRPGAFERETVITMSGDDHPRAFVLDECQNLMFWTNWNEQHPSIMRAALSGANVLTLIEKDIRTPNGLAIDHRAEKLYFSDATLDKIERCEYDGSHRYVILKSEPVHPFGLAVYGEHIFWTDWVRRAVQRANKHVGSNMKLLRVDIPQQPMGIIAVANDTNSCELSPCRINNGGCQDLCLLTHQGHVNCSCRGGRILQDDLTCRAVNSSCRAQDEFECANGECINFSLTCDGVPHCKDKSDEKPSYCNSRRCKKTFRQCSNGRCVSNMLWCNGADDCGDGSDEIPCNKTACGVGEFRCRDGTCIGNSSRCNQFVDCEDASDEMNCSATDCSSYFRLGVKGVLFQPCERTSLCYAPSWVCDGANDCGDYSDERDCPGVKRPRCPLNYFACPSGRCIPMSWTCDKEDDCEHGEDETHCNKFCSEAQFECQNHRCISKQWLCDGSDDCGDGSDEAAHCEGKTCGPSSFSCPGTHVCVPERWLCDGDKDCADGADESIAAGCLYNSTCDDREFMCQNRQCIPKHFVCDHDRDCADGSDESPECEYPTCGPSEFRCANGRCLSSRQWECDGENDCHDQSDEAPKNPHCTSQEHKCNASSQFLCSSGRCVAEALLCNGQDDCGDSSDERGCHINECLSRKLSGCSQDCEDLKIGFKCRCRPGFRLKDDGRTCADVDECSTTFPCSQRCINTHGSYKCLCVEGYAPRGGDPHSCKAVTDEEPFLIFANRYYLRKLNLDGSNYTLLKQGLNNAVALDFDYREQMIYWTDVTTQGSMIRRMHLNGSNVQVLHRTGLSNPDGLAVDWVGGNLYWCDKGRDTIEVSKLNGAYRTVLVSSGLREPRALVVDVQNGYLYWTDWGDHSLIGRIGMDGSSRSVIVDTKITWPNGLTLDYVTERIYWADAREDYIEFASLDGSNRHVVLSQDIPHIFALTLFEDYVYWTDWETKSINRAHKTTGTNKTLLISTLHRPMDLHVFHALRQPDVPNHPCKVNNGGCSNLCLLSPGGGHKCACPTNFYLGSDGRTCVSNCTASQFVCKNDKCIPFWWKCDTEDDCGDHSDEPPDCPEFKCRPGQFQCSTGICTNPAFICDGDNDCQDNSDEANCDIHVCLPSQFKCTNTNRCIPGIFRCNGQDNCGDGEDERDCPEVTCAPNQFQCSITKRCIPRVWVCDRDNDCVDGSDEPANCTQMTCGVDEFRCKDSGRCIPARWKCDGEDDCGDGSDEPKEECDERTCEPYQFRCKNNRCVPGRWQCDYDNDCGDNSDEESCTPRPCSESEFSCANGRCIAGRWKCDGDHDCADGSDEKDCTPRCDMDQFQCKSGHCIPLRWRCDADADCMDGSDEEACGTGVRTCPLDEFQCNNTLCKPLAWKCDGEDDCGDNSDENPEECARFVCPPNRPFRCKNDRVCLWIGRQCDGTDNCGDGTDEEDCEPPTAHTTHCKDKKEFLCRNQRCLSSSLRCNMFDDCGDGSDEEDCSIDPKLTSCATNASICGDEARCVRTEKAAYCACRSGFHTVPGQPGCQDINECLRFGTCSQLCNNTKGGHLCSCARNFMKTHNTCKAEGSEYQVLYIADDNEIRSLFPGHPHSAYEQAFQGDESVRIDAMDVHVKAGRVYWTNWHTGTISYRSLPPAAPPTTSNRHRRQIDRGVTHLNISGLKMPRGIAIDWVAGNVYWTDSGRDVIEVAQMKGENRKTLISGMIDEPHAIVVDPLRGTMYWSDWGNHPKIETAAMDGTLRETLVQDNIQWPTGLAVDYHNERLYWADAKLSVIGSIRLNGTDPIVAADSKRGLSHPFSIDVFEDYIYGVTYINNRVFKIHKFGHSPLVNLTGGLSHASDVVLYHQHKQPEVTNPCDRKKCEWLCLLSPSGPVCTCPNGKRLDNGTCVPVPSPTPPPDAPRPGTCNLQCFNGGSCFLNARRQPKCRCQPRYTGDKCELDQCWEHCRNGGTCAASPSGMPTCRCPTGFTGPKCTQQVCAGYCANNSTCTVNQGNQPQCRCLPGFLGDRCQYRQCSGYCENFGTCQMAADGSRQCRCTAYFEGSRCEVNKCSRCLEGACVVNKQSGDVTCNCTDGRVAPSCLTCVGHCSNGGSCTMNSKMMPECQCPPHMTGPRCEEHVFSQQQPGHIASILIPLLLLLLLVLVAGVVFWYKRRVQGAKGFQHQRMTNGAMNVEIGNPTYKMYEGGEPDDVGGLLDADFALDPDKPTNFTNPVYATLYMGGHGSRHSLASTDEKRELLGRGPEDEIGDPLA
Kd [1] [µM],Kd [2] [µM],ka1 [2] [M⁻¹ s⁻¹],ka2 [2] [s⁻¹],kd1 [2] [s⁻¹],kd2 [2] [s⁻¹],Kd [3] [µM],Substance
0.372,,,,,,,9XKQ 2N4R tau (natural protein)
,0.529,34000,0.01,0.086,0.0028,0.493,Recombinant human apolipoprotein E2 (lipid-free) (from UniProt P02649 19-317) (ligand)
,0.202,62000,0.0099,0.065,0.0027,0.236,Recombinant human apolipoprotein E4 (lipid-free) (from UniProt P02649 19-317) (ligand)
